Molecular target: DCP1-CFP (Arabidopsis thaliana) (UniProt Q9SJF3)
Test: FRET or BRET; FRET acceptor photobleaching in transiently transfected Arabidopsis leaf epidermis cells; DCP1-CFP donor, YFP-gSPI or free YFP acceptor, 35S promoter; whole cells and stationary P-bodies measured

UniProt Q9SJF3, sequence (Q9SJF3 whole entry): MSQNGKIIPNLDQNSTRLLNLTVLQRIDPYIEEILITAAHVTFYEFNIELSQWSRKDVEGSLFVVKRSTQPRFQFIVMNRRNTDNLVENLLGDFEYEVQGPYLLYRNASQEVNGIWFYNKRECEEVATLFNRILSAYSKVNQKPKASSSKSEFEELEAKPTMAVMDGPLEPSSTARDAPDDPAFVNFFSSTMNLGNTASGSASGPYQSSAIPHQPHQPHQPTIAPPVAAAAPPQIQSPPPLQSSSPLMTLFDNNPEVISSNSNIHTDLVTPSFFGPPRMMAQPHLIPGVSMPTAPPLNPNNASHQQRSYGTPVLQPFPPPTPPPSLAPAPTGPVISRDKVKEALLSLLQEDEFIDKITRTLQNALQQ

FRET efficiency (FRETE), immobile P-bodies: 23%
FRET efficiency (FRETE), whole cells: 27%
Substance: YFP-tagged full-length genomic SPI, F4HZB2 1-3601

From publication PMC4489804
